In data set [1] the test system is HGF-G1 precursor protein (HGF-NG with Leu488-Arg489 at the C-terminus of the α chain converted into His-Tyr).
Data set [2] has as its system HGF-G2 precursor protein (HGF-NG with Arg489-Val490 converted into Tyr-His).
The subject of data set [3] is HGF-G3 precursor protein (HGF-NG with Lys-Thr-Lys-Gln-Leu-Arg at 484-489 converted into Pro-Gly-Ala-Ala-His-Tyr).
Data set [4] relates to HGF-NG precursor protein (5-amino-acid-deleted-type/glycosylation-deficient human HGF with the natural α chain-β chain boundary sequence Arg489-Val490).
Sequence of HGF-NG precursor protein (5-amino-acid-deleted-type/glycosylation-deficient human HGF with the natural α chain-β chain boundary sequence Arg489-Val490) (chain, as listed by the source, stated change not applied): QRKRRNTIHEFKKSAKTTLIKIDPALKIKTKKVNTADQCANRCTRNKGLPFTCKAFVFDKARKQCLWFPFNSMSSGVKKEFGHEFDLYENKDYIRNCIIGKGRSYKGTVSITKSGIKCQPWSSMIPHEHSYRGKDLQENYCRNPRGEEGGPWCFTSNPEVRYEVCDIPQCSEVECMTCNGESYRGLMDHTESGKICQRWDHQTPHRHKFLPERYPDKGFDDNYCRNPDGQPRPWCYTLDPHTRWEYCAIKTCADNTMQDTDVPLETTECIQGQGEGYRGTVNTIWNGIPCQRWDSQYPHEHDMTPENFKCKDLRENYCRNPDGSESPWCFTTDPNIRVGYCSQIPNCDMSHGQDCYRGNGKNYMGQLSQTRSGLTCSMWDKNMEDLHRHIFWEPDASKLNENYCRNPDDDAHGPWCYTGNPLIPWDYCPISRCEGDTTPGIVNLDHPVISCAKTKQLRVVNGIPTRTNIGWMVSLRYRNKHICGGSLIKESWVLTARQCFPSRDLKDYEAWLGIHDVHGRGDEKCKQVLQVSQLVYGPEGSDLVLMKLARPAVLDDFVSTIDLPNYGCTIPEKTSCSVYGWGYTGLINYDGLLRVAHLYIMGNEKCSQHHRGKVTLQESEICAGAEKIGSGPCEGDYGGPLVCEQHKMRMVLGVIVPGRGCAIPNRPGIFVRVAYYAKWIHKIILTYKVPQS

Sequence of HGF-G3 precursor protein (HGF-NG with Lys-Thr-Lys-Gln-Leu-Arg at 484-489 converted into Pro-Gly-Ala-Ala-His-Tyr) (chain, as listed by the source): as the sequence (chain, as listed by the source, stated change not applied) above, with K453P, T454G, K455A, Q456A, L457H, R458Y counted along it
Sequence of HGF-G2 precursor protein (HGF-NG with Arg489-Val490 converted into Tyr-His) (chain, as listed by the source): as the sequence (chain, as listed by the source, stated change not applied) above, with R458Y, V459H counted along it
Sequence of HGF-G1 precursor protein (HGF-NG with Leu488-Arg489 at the C-terminus of the α chain converted into His-Tyr) (chain, as listed by the source): as the sequence (chain, as listed by the source, stated change not applied) above, with L457H, R458Y counted along it

“Genenase I (made by New England Laboratory)”: the “cleavage of the single-stranded precursor into α and β chain bands (western blot, reducing SDS-PAGE)” value in data set [1] was “after Genenase I treatment, bands were detected at the same positions as those of the α chain and β chain of HGF-NG”; in data set [2], “after Genenase I treatment, bands were detected at the same positions as those of the α chain and β chain of HGF-NG”; in data set [3], “after Genenase I treatment, bands were detected at the same positions as those of the α chain and β chain of HGF-NG”. For the same substance, the “cleavage of the single-stranded precursor (western blot, reducing SDS-PAGE)” value in data set [4] was “HGF-NG precursor protein having a natural α chain-β chain boundary sequence was not cleaved by Genenase I”.
